Assay results as given in patent US5817490A, “Enzymatic process for the manufacture of ascorbic acid 2-keto-L-gulonic acid and esters of 2-keto-L-gulonic acid” (Eastman Chemical Company, priority 1997, dated 1998).
Read-outs that look alike come from different tables or passages of the source.

Columns and labels:
[1] = format: physicochemical
Procedure: HPLC sample standards were prepared by dissolving KLG, MeKLG, ascorbic acid (ASA), and butyl-KLG to the appropriate concentration in water. Samples of these standards were placed in filled and sealed vials, stored at room temperature, and analyzed periodically. The HPLC was calibrated on the area response for standards that were injected onto the HPLC as soon as possible after the preparation of the standards.

[2] = enzyme screen for hydrolysis/methanolysis of butyl-KLG (HPLC of products and remaining substrate); format: biochemical; design: KLG formed / MeKLG formed / ASA formed / BuKLG (remaining substrate): unit: ppm
Procedure: Initial enzyme screens were carried out as follows. Enzyme (typically 10 mg), aqueous buffer (typically 860 microliters (ul) or 550 ul), aqueous 0.2M CaCl2 (10 ul), methanol (typically 90 ul or 400 ul), and an aqueous solution of substrate (typically 90 ul of butyl-KLG at a typical concentration of 110,000 ppm) were added to a 2 ml polypropylene centrifuge tube. The resulting solution was vortexed briefly and placed on a shaker bath at 300 rpm at 38° C. (typically for 18 hours or more). After incubation, samples were centrifuged at 14,000 G's (14,000 times gravity) for 20 minutes to remove enzyme, sampled (300 ul), and diluted to one milliliter with distilled water. If not analyzed by HPLC within the day, samples were frozen prior to analysis.
The data were reported in terms of parts per million of KLG, MeKLG, ascorbic acid (ASA) and butyl-KLG. […] Samples labeled as "no enzyme" were controls within a given run. The controls contained substrate but no enzyme and thus represented experimental and HPLC background data.

[3] = Table 3: 38° C., 16 Hours, 38% Methanol-Water, 0.1M MES Buffer
[4] = Table 4: 38° C., 47.5 Hours, 38% Methanol-Water, 0.1M MES Buffer
[5] = Table 7: 38° C., 19 Hours, 8.6% Methanol-Water, 0.1M MES
[6] = Table 8: 38° C., 21 Hours, 8.6% Methanol-Water, 0.2 M MES
[7] = Table 5: 38° C., 19 Hours, 38% Methanol-Water, 0.1 M MES Buffer
[8] = Table 6: 38°, 19 Hours, 8.6% Methanol-Water, 0.1 M MES

Row | Molecule | ASA formed [2, 3] | BuKLG (remaining substrate) [2, 3] | KLG formed [2, 3] | MeKLG formed [2, 3] | ASA formed [2, 4] | BuKLG (remaining substrate) [2, 4] | KLG formed [2, 4] | MeKLG formed [2, 4] | ASA formed [2, 5] | BuKLG (remaining substrate) [2, 5] | KLG formed [2, 5] | MeKLG formed [2, 5] | ASA formed [2, 6] | BuKLG (remaining substrate) [2, 6] | KLG formed [2, 6] | MeKLG formed [2, 6] | further results
1 | O=C1O[C@H]([C@@H](O)CO)C(O)=C1O [ASA, ascorbic acid] |  |  |  |  |  |  |  |  |  |  |  |  |  |  |  |  | Amount Found ([1]; 50 ppm standard, 0 minutes): 53.4 ppm; Amount Found ([1]; 50 ppm standard, 400 minutes): 28.3 ppm; Amount Found ([1]; 50 ppm standard, 715 minutes): 0 ppm; Amount Found ([1]; 100 ppm standard, 0 minutes): 107 ppm; Amount Found ([1]; 100 ppm standard, 400 minutes): 96.6 ppm; Amount Found ([1]; 100 ppm standard, 715 minutes): 57.2 ppm; Amount Found ([1]; 500 ppm standard, 0 minutes): 534 ppm; Amount Found ([1]; 500 ppm standard, 400 minutes): 487 ppm; Amount Found ([1]; 500 ppm standard, 715 minutes): 473 ppm
2 | Porcine Pancreatic Lipase: Porcine Pancreatic Lipase (protein, UniProt P00591 1-450, looked up) Pancreatic triacylglycerol …: SEVCFPRLGCFSDDAPWAGIVQRPLKILPWSPKDVDTRFLLYTNQNQNNYQELVADPSTITNSNFRMDRKTRFIIHGFIDKGEEDWLSNICKNLFKVESVNCICVDWKGGSRTGYTQASQNIRIVGAEVAYFVEVLKSSLGYSPSNVHVIGHSLGSHAAGEAGRRTNGTIERITGLDPAEPCFQGTPELVRLDPSDAKFVDVIHTDAAPIIPNLGFGMSQTVGHLDFFPNGGKQMPGCQKNILSQIVDIDGIWEGTRDFVACNHLRSYKYYADSILNPDGFAGFPCDSYNVFTANKCFPCPSEGCPQMGHYADRFPGKTNGVSQVFYLNTGDASNFARWRYKVSVTLSGKKVTGHILVSLFGNEGNSRQYEIYKGTLQPDNTHSDEFDSDVEVGDLQKVKFIWYNNNVINPTLPRVGASKITVERNDGKVYDFCSQETVREEVLLTLNPC | 49 ppm | 10709 ppm | 81 ppm | 316 ppm | 222 ppm | 10899 ppm | 229 ppm | 613 ppm | 314 | 7888 | 333 | 291 | 78 ppm | 6860 ppm | 303 ppm | 320 ppm | 
3 | Humicola lanuginosa Lipase: Humicola lanuginosa Lipase (protein, UniProt O59952 23-291, looked up) Lipase: EVSQDLFNQFNLFAQYSAAAYCGKNNDAPAGTNITCTGNACPEVEKADATFLYSFEDSGVGDVTGFLALDNTNKLIVLSFRGSRSIENWIGNLNFDLKEINDICSGCRGHDGFTSSWRSVADTLRQKVEDAVREHPDYRVVFTGHSLGGALATVAGADLRGNGYDIDVFSYGAPRVGNRAFAEFLTVQTGGTLYRITHTNDIVPRLPPREFGYSHSSPEYWIKSGTLVPVTRNDIVKIEGIDATGGNNQPNIPDIPAHLWYFGLIGTCL | 6 ppm | 10191 ppm | 63 ppm | 90 ppm | 42 ppm | 8017 ppm | 129 ppm | 241 ppm |  |  |  |  | 10 ppm | 7215 ppm | 176 ppm | 129 ppm | 
4 | Rhizoipus Delmar Lipase: Rhizoipus Delmar Lipase (protein, UniProt P61872 96-392, looked up) Lipase: DDNLVGGMTLDLPSDAPPISLSSSTNSASDGGKVVAATTAQIQEFTKYAGIAATAYCRSVVPGNKWDCVQCQKWVPDGKIITTFTSLLSDTNGYVLRSDKQKTIYLVFRGTNSFRSAITDIVFNFSDYKPVKGAKVHAGFLSSYEQVVNDYFPVVQEQLTAHPTYKVIVTGHSLGGAQALLAGMDLYQREPRLSPKNLSIFTVGGPRVGNPTFAYYVESTGIPFQRTVHKRDIVPHVPPQSFGFLHPGVESWIKSGTSNVQICTSEIETKDCSNSIVPFTSILDHLSYFDINEGSCL | 1 ppm | 7392 ppm | 51 ppm | 99 ppm |  |  |  |  |  |  |  |  | 0 ppm | 7097 ppm | 178 ppm | 0 ppm | 
5 | Rhizopus Niveus Lipase: Rhizopus Niveus Lipase (protein, UniProt P61871 96-392, looked up) Lipase: DDNLVGGMTLDLPSDAPPISLSSSTNSASDGGKVVAATTAQIQEFTKYAGIAATAYCRSVVPGNKWDCVQCQKWVPDGKIITTFTSLLSDTNGYVLRSDKQKTIYLVFRGTNSFRSAITDIVFNFSDYKPVKGAKVHAGFLSSYEQVVNDYFPVVQEQLTAHPTYKVIVTGHSLGGAQALLAGMDLYQREPRLSPKNLSIFTVGGPRVGNPTFAYYVESTGIPFQRTVHKRDIVPHVPPQSFGFLHPGVESWIKSGTSNVQICTSEIETKDCSNSIVPFTSILDHLSYFDINEGSCL | 17 ppm | 10453 ppm | 80 ppm | 252 ppm |  |  |  |  |  |  |  |  | 61 ppm | 7102 ppm | 178 ppm | 181 ppm | 
6 | Subtilisin Carlsberg: Subtilisin Carlsberg (a protease) (protein, UniProt P00780 106-379, looked up) Subtilisin Carlsberg: AQTVPYGIPLIKADKVQAQGFKGANVKVAVLDTGIQASHPDLNVVGGASFVAGEAYNTDGNGHGTHVAGTVAALDNTTGVLGVAPSVSLYAVKVLNSSGSGSYSGIVSGIEWATTNGMDVINMSLGGASGSTAMKQAVDNAYAKGVVVVAAAGNSGSSGNTNTIGYPAKYDSVIAVGAVDSNSNRASFSSVGAELEVMAPGAGVYSTYPTNTYATLNGTSMASPHVAGAAALILSKHPNLSASQVRNRLSSTATYLGSSFYYGKGLINVEAAAQ |  |  |  |  | 0 ppm | 0 ppm | 3072 ppm | 47 ppm | 0 | 4428 | 4463 | 93 |  |  |  |  | levels of activity / conversion of butyl-KLG ([2]; Example 4: 38% methanol-water, MES, pH 5 to 5.8): particularly high levels of activity
7 | Mucor meihei Lipase: Mucor meihei Lipase (protein, UniProt P19515 95-363, looked up) Lipase: SIDGGIRAATSQEINELTYYTTLSANSYCRTVIPGATWDCIHCDATEDLKIIKTWSTLIYDTNAMVARGDSEKTIYIVFRGSSSIRNWIADLTFVPVSYPPVSGTKVHKGFLDSYGEVQNELVATVLDQFKQYPSYKVAVTGHSLGGATALLCALDLYQREEGLSSSNLFLYTQGQPRVGDPAFANYVVSTGIPYRRTVNERDIVPHLPPAAFGFLHAGEEYWITDNSPETVQVCTSDLETSDCSNSIVPFTSVLDHLSYFGINTGLCT |  |  |  |  | 108 ppm | 7041 ppm | 54 ppm | 189 ppm | 156 | 8620 | 229 | 278 | 54 ppm | 7067 ppm | 243 ppm | 283 ppm | 
8 | L-7 (Porcine pancreas): Lipase (Porcine pancreas) (protein, UniProt P00591 1-450, looked up) Pancreatic triacylglycerol …: SEVCFPRLGCFSDDAPWAGIVQRPLKILPWSPKDVDTRFLLYTNQNQNNYQELVADPSTITNSNFRMDRKTRFIIHGFIDKGEEDWLSNICKNLFKVESVNCICVDWKGGSRTGYTQASQNIRIVGAEVAYFVEVLKSSLGYSPSNVHVIGHSLGSHAAGEAGRRTNGTIERITGLDPAEPCFQGTPELVRLDPSDAKFVDVIHTDAAPIIPNLGFGMSQTVGHLDFFPNGGKQMPGCQKNILSQIVDIDGIWEGTRDFVACNHLRSYKYYADSILNPDGFAGFPCDSYNVFTANKCFPCPSEGCPQMGHYADRFPGKTNGVSQVFYLNTGDASNFARWRYKVSVTLSGKKVTGHILVSLFGNEGNSRQYEIYKGTLQPDNTHSDEFDSDVEVGDLQKVKFIWYNNNVINPTLPRVGASKITVERNDGKVYDFCSQETVREEVLLTLNPC |  |  |  |  | 120 ppm | 5488 ppm | 94 ppm | 884 ppm | 106 | 5392 | 1007 | 575 |  |  |  |  | 
9 | Hog Pancreatic Lipase: Hog Pancreatic Lipase, Fluka (protein, UniProt P00591 1-450, looked up) Pancreatic triacylglycerol …: SEVCFPRLGCFSDDAPWAGIVQRPLKILPWSPKDVDTRFLLYTNQNQNNYQELVADPSTITNSNFRMDRKTRFIIHGFIDKGEEDWLSNICKNLFKVESVNCICVDWKGGSRTGYTQASQNIRIVGAEVAYFVEVLKSSLGYSPSNVHVIGHSLGSHAAGEAGRRTNGTIERITGLDPAEPCFQGTPELVRLDPSDAKFVDVIHTDAAPIIPNLGFGMSQTVGHLDFFPNGGKQMPGCQKNILSQIVDIDGIWEGTRDFVACNHLRSYKYYADSILNPDGFAGFPCDSYNVFTANKCFPCPSEGCPQMGHYADRFPGKTNGVSQVFYLNTGDASNFARWRYKVSVTLSGKKVTGHILVSLFGNEGNSRQYEIYKGTLQPDNTHSDEFDSDVEVGDLQKVKFIWYNNNVINPTLPRVGASKITVERNDGKVYDFCSQETVREEVLLTLNPC |  |  |  |  |  |  |  |  |  |  |  |  |  |  |  |  | ASA formed [2, 7]: 130 ppm; BuKLG (remaining substrate) [2, 7]: 11114 ppm; KLG formed [2, 7]: 58 ppm; MeKLG formed [2, 7]: 529 ppm; ASA formed [2, 8]: 158 ppm; BuKLG (remaining substrate) [2, 8]: 5284 ppm; KLG formed [2, 8]: 890 ppm; MeKLG formed [2, 8]: 791 ppm
